Target: the molecule itself
Test: cryo-EM structure; helical reconstruction (D14, rise 43.86 Å, twist -7.16°) of AcMNPV nucleocapsids purified from Sf9 cells, on graphene-coated grids; local reconstruction of four adjacent VP39 dimers

B1: Autographa californica multiple nucleopolyhedrovirus (AcMNPV) major capsid protein VP39 (natural protein)
chain: MALVPVGMAPRQMRVNRCIFASIVSFDACITYKSPCSPDAYHDDGWFICNNHLIKRFKMSKMVLPIFDEDDNQFKMTIARHLVGNKERGIKRILIPSATNYQDVFNLNSMMQAEQLIFHLIYNNENAVNTICDNLKYTEGFTSNTQRVIHSVYATTKSILDTTNPNTFCSRVSRDELRFFDVTNARALRGGAGDQLFNNYSGFLQNLIRRAVAPEYLQIDTEELRFRNCATCIIDETGLVASVPDGPELYNPIRSSDIMRSQPNRLQIRNVLKFEGDTRELDRTLSGYEEYPTYVPLFLGYQIINSENNFLRNDFIPRANPNATLGGGAVAGPAPGVAGEAGGGIAV
notes: VP39, the 39 kDa major capsid protein of Autographa californica multiple nucleopolyhedrovirus, as assembled in the nucleocapsid; the first 11 residues of the N terminus and the last 27 residues of the C terminus are unresolved in the model; The virus's own VP39 from the bacmid backbone; the decahistidine or FLAG tags were on unrelated human constructs, not on VP39; In the sample VP39 stood as …
  stoichiometry N: 2

From PMC10767040, “Helical reconstruction of VP39 reveals principles for baculovirus nucleocapsid assembly” (Nature Communications, 2024)
